From paper PMC10998612

Target: eIF2 trimer (recombinant, not phosphorylated), P05198;P20042;P41091
Assay: fluorescence polarisation
Conditions: chain shown with the change; 2.0 µM eIF2 trimer (highest analyte concentration); fluorescein-labeled R3 420-466 peptide as probe; parent: est. 90; read off a plot

Sequence of eIF2 trimer (recombinant, not phosphorylated), P05198;P20042;P41091 (chain, as listed by the source, chain 1 of 3): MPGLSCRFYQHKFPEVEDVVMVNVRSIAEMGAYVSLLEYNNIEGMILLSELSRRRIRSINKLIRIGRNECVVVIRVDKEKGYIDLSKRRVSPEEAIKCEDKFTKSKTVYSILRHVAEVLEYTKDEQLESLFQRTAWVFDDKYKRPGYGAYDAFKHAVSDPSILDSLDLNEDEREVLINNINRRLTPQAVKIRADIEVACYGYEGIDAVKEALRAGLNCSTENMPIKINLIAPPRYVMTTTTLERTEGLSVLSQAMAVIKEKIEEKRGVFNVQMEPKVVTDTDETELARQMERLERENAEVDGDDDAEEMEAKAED
Sequence of eIF2 trimer (recombinant, not phosphorylated), P05198;P20042;P41091 (chain, as listed by the source, chain 2 of 3): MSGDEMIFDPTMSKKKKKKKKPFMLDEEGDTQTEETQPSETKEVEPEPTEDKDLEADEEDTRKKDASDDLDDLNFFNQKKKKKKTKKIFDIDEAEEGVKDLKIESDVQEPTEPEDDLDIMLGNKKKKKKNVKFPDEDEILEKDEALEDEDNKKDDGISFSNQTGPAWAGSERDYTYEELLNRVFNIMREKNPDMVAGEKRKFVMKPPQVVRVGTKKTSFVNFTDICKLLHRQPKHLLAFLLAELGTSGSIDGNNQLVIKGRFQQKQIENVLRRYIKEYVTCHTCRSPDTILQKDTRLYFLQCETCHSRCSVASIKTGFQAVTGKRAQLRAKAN
Sequence of eIF2 trimer (recombinant, not phosphorylated), P05198;P20042;P41091 (chain, as listed by the source, chain 3 of 3): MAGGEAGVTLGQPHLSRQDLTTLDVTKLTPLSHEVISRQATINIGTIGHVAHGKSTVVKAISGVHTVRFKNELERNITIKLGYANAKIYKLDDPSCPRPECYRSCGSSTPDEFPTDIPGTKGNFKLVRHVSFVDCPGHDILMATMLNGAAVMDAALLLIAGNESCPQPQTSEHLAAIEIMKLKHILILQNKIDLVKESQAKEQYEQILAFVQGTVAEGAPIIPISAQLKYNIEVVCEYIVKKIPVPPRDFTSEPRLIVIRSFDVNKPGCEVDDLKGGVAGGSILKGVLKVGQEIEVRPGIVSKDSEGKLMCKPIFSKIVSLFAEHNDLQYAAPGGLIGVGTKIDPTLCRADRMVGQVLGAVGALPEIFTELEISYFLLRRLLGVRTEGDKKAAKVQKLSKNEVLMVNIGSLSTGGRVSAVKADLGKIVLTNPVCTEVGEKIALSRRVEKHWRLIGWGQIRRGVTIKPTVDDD

response: 27 mP
B1: fluorescein-labeled peptide corresponding to repeat 3 (PPP1R15A^420-466), wild type, O75807 F428A; W432A (peptide)
chain: ASTPPASAALKAAVYRPGEDTEEEEDEDVDSEDKEDDSEAALGEAES
